This passage reports EC50 results from patent US20170281765A1 (SORRENTO THERAPEUTICS, published 2017).

As a reminder, the EC50 is the concentration giving half of the maximal effect. Higher therefore signals a need for much substance.

For this assay, the target named is T1, human PD-L1 expressed on the cell surface (human, UniProt Q9NZQ7 19-290).
T1 construct: whole, on cells; also called CHO-PD-L1
Kind of assay: flow cytometry on anti-CD3 activated human lymphocytes (CD19 negative gate), PE anti-human Ig detection. Here is the method: This example provides a characterization of the disclosed anti-PD-L1 antibodies binding to human PD-L1 expressed on human lymphocytes. Human peripheral blood mononuclear cells were activated by culture with anti-CD3 for three days to promote expression of PD-L1. Binding was assessed by adding serial dilutions of the antibody to the activated lymphocytes. After washing, binding was detected by staining with a phycoerythrin labeled anti-human Ig reagent followed by analysis using a FACS Aria (Becton Dickinson, San Jose, Calif.). Since the anti-human Ig reagent reacts with immunoglobulin on B lymphocytes the cells were co-staining with an anti-human CD19 APC-Cy5 reagent.
For orientation: In flow cytometry, cells or beads pass a laser one at a time.

T1 sequence (Q9NZQ7 19-290): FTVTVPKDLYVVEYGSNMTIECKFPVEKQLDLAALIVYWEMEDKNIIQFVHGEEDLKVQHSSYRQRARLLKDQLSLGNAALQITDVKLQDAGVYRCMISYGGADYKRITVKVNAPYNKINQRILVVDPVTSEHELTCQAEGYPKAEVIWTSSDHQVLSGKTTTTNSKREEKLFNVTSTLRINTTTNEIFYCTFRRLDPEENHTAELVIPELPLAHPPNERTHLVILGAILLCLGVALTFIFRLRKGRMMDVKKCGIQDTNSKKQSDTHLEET

B1: anti-PD-L1 antibody H6 (antibody, V domains shown)
VH: QMQLVQSGAEVKKPGSSVKVSCKASGGTFSSYAISWVRQAPGQGLEWMGGIIPIFGTANYAQKFQGRVTITADESTSTAYMELSSLRSEDTAVYYCARGNIVATITPLDYWGQGTLVTVSS
VL: SYELMQPPSVSVAPGKTATIACGGENIGRKTVHWYQQKPGQAPVLVIYYDSDRPSGIPERFSGSNSGNTATLTISRVEAGDEADYYCQVWDSSSDHRIFGGGTKLTVL
notes: Fully human antibody of an IgG class
The molecule B1 registered an EC50 of roughly 0.1 nM.

B2: anti-PD-L1 antibody H10 (antibody, V domains shown)
VH: EVQLVQSGGGLVQPGGSLRLSCAASGFTFSSYSMNWVRQAPGKGLEWVSYISSSSSTIYYADSVKGRFTISRDNAKNSLYLQMNSLRDEDTAVYYCARGDYYYGMDVWGQGTTVTVSS
VL: EIVLTQSPSSLSASIGDRVTLTCRASQSIRRFLNWYQQKPGKAPELLIYTASSLQSGVPSRFSGSGSGTDFTLTINSLQPEDFATYYCQQSYAVSPYTFGQGTKVEIR
notes: as for B1
In the case of B2, the EC50 was roughly 0.1 nM.
